Reference: PMC6779467

Target: Hsf1-13xMyc (S. cerevisiae) (UniProt P10961)
Experiment: cross-linking; in vivo site-specific photo-crosslinking (UV-A, 1 hr on ice) from pBPa at position 423 of Ssa1-HA; cells grown at 30 C or heat shocked 3 min at 43 C; western with anti-HA and anti-Myc

decrease of Hsf1-Ssa1 crosslinking after heat shock (3 min at 43 C) against cells at 30 C: 77%
Substance: Ssa1_(E423BPa)-HA (from UniProt P10591 1-642) (natural protein)
